The target of the assay is JunB-6×His. Kind of assay: co-purification.

B1: mCherry-BATF1 (natural protein)
chain: MPHSSDSSDSSFSRSPPPGKQDSSDDVRKVQRREKNRIAAQKSRQRQTQKADTLHLESEDLEKQNAALRKEIKQLTEELKYFTSVLSSHEPLCSVLASGTPSPPEVVYSAHAFHQPHISSPRFQP
As a reminder, the stoichiometry N is a count of units in the complex or per binding partner. B1 returned a stoichiometry N of 1.
